# Results published in paper PMC9482650, “Quantitative fragmentomics allow affinity mapping of interactomes” (Nature Communications, 2022).
# T1: RHPN1, Q8TCX5
# T1 sequence (Q8TCX5 508-602, limits assumed, looked up): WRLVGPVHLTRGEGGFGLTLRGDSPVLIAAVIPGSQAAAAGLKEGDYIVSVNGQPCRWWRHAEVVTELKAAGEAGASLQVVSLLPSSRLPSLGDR
# T2: DLG3_2, Q92796
# T2 sequence (Q92796 221-321, limits assumed, looked up): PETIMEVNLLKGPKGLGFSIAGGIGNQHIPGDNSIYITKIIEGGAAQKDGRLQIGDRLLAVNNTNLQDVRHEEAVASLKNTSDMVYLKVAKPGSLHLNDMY
# T3: APBA2_1, Q99767
# T3 sequence (Q99767 563-664, limits assumed, looked up): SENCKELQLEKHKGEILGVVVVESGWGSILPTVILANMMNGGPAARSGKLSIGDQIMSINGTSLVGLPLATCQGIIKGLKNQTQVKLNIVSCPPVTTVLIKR
# T4: NHERF3_1, Q5T2W1
# T4 sequence (Q5T2W1 4-100, limits assumed, looked up): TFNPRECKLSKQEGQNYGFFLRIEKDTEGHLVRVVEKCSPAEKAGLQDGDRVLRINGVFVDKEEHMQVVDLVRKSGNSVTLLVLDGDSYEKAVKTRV
# T5: NHERF3_3, Q5T2W1
# T5 sequence (Q5T2W1 238-333, limits assumed, looked up): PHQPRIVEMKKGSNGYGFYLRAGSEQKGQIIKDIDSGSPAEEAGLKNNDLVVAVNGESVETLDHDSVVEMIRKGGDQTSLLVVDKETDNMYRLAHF
# T6: MPP2, Q14168
# T6 sequence (Q14168 180-250, limits assumed, looked up): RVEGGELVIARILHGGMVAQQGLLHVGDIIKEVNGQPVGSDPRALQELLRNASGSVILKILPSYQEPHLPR
# T7: SYNJ2BP, P57105
# T7 sequence (P57105 8-110, limits assumed, looked up): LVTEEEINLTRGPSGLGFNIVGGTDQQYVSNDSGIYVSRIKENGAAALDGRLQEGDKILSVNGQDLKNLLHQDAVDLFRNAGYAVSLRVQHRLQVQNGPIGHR
# T8: LNX2_2, Q8N448
# T8 sequence (Q8N448 334-432, limits assumed, looked up): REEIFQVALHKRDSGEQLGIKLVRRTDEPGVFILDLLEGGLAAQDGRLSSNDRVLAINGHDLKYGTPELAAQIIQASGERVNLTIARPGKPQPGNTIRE
# T9: APBA1_1, Q02410
# T9 sequence (Q02410 651-752, limits assumed, looked up): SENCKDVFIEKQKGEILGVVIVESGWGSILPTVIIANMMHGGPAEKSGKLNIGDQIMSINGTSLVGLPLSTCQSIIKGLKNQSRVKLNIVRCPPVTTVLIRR
# T10: GRIP1_5, Q9Y3R0
# T10 sequence (Q9Y3R0 568-668, limits assumed, looked up): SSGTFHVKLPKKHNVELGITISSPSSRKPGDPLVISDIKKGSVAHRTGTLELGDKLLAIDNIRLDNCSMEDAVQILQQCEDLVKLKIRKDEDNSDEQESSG
# T11: GRIP1_3, Q9Y3R0
# T11 sequence (Q9Y3R0 247-346, limits assumed, looked up): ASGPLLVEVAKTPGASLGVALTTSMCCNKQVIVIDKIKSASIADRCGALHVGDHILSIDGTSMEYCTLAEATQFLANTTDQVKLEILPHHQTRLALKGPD
# T12: APBA1_2, Q02410
# T12 sequence (Q02410 742-832, limits assumed, looked up): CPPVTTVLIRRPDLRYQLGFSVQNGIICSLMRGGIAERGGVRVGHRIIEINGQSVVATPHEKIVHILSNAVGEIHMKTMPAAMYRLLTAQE
# B1: SEMA4F, O95754 (peptide)
# chain: PLATCDETSI
# B2: TBPL1, P62380 (peptide)
# chain: FVFESRKEIL
# B3: SDC3, O75056 (peptide)
# chain: KPDKQEEFYA
# B4: GUCY1A2, P33402 (peptide)
# chain: GTMFLRETSL
# Target: PICK1, Q9NRD5
# Sequence (Q9NRD5 17-115): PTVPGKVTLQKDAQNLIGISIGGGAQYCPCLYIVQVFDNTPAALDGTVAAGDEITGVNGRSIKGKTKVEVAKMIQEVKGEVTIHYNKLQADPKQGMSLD
# Assay: holdup assay
# Set-up: key: below the threshold = too weak to quantify, mostly under pKd 3.1 to 4
# Conditions: plain residues with an end cap or a label only (N-terminal biotin on a linker: ado-ado)
row,Binder,pKd
1,B1,below the threshold
2,B2,below the threshold
3,B3,below the threshold
4,B4,4.12

# Target: T1, RHPN1, Q8TCX5
# Assay: holdup assay
# Set-up: key: below the threshold = too weak to quantify, mostly under pKd 3.1 to 4
# Conditions: plain residues with an end cap or a label only (N-terminal biotin on a linker: ado-ado)
row,Binder,pKd
1,B1,4.93
2,B2,below the threshold
3,B3,below the threshold
4,B4,4.8

# Target: Inadl_8, Q8NI35
# Sequence (Q8NI35 1425-1530): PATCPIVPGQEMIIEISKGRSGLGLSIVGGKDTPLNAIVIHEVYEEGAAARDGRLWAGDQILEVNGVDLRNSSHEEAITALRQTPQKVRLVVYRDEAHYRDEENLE
# Assay: holdup assay
# Set-up: key: below the threshold = too weak to quantify, mostly under pKd 3.1 to 4
# Conditions: plain residues with an end cap or a label only (N-terminal biotin on a linker: ado-ado)
row,Binder,pKd
1,B1,below the threshold
2,B2,below the threshold
3,B3,below the threshold
4,B4,3.9

# Target: NOS1, P29475
# Sequence (P29475 9-101): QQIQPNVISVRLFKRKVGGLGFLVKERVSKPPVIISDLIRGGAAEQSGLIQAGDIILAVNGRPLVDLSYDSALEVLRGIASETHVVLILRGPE
# Assay: holdup assay
# Set-up: key: below the threshold = too weak to quantify, mostly under pKd 3.1 to 4
# Conditions: plain residues with an end cap or a label only (N-terminal biotin on a linker: ado-ado)
row,Binder,pKd
1,B1,below the threshold
2,B2,3.68
3,B3,below the threshold
4,B4,3.84

# Target: PDLIM1, O00151
# Sequence (O00151 1-87): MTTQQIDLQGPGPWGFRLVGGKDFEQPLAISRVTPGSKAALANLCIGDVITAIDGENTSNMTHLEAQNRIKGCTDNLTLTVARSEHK
# Assay: holdup assay
# Set-up: key: below the threshold = too weak to quantify, mostly under pKd 3.1 to 4
# Conditions: plain residues with an end cap or a label only (N-terminal biotin on a linker: ado-ado)
row,Binder,pKd
1,B1,below the threshold
2,B2,below the threshold
3,B3,below the threshold
4,B4,3.78

# Target: T2, DLG3_2, Q92796
# Assay: holdup assay
# Set-up: key: below the threshold = too weak to quantify, mostly under pKd 3.1 to 4
# Conditions: plain residues with an end cap or a label only (N-terminal biotin on a linker: ado-ado)
row,Binder,pKd
1,B1,4.3
2,B2,below the threshold
3,B3,4.05
4,B4,4.51

# Target: MAGI1_1, Q96QZ7
# Sequence (Q96QZ7 1-106): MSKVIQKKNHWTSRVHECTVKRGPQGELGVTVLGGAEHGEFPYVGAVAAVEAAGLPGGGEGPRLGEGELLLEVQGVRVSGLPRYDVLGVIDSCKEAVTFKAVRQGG
# Assay: holdup assay
# Set-up: key: below the threshold = too weak to quantify, mostly under pKd 3.1 to 4
# Conditions: plain residues with an end cap or a label only (N-terminal biotin on a linker: ado-ado)
row,Binder,pKd
1,B1,below the threshold
2,B2,below the threshold
3,B3,below the threshold
4,B4,below the threshold

# Target: T3, APBA2_1, Q99767
# Assay: holdup assay
# Set-up: key: below the threshold = too weak to quantify, mostly under pKd 3.1 to 4
# Conditions: plain residues with an end cap or a label only (N-terminal biotin on a linker: ado-ado)
row,Binder,pKd
1,B1,below the threshold
2,B2,below the threshold
3,B3,below the threshold
4,B4,below the threshold

# Target: GRIP2_4, Q9C0E4
# Sequence (Q9C0E4 446-548): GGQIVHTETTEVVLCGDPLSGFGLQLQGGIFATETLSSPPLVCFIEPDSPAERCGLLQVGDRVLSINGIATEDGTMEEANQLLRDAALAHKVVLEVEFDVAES
# Assay: holdup assay
# Set-up: key: below the threshold = too weak to quantify, mostly under pKd 3.1 to 4
# Conditions: plain residues with an end cap or a label only (N-terminal biotin on a linker: ado-ado)
row,Binder,pKd
1,B1,below the threshold
2,B2,below the threshold
3,B3,below the threshold
4,B4,below the threshold

# Target: DLG2_3, Q15700
# Assay: holdup assay
# Set-up: key: below the threshold = too weak to quantify, mostly under pKd 3.1 to 4
# Conditions: plain residues with an end cap or a label only (N-terminal biotin on a linker: ado-ado)
row,Binder,pKd
1,B1,3.9
2,B2,below the threshold
3,B3,3.64
4,B4,4.79

# Target: IL16_3, Q14005
# Sequence (Q14005 1107-1207): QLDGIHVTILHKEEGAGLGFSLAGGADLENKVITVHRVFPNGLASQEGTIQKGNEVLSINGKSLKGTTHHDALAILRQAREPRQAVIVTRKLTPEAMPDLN
# Assay: holdup assay
# Set-up: key: below the threshold = too weak to quantify, mostly under pKd 3.1 to 4
# Conditions: plain residues with an end cap or a label only (N-terminal biotin on a linker: ado-ado)
row,Binder,pKd
1,B1,below the threshold
2,B2,below the threshold
3,B3,below the threshold
4,B4,below the threshold

# Target: DLG4_2, P78352
# Sequence (P78352 155-259): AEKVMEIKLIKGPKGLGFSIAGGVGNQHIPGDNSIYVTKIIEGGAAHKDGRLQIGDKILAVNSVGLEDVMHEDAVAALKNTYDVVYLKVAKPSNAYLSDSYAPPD
# Assay: holdup assay
# Set-up: key: below the threshold = too weak to quantify, mostly under pKd 3.1 to 4
# Conditions: plain residues with an end cap or a label only (N-terminal biotin on a linker: ado-ado)
row,Binder,pKd
1,B1,3.67
2,B2,below the threshold
3,B3,below the threshold
4,B4,4.5

# Target: T4, NHERF3_1, Q5T2W1
# Assay: holdup assay
# Set-up: key: below the threshold = too weak to quantify, mostly under pKd 3.1 to 4
# Conditions: plain residues with an end cap or a label only (N-terminal biotin on a linker: ado-ado)
row,Binder,pKd
1,B1,3.74
2,B2,below the threshold
3,B3,below the threshold
4,B4,5.64

# Target: GRIP2_5, Q9C0E4
# Sequence (Q9C0E4 544-642): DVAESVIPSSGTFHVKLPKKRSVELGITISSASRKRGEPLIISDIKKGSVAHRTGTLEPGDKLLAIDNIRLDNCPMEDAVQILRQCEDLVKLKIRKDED
# Assay: holdup assay
# Set-up: key: below the threshold = too weak to quantify, mostly under pKd 3.1 to 4
# Conditions: plain residues with an end cap or a label only (N-terminal biotin on a linker: ado-ado)
row,Binder,pKd
1,B1,below the threshold
2,B2,below the threshold
3,B3,below the threshold
4,B4,below the threshold

# Target: DLG4_1, P78352
# Sequence (P78352 62-152): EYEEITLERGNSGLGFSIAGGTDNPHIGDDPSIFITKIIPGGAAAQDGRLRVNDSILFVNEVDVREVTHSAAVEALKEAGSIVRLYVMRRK
# Assay: holdup assay
# Set-up: key: below the threshold = too weak to quantify, mostly under pKd 3.1 to 4
# Conditions: plain residues with an end cap or a label only (N-terminal biotin on a linker: ado-ado)
row,Binder,pKd
1,B1,below the threshold
2,B2,below the threshold
3,B3,below the threshold
4,B4,4.03

# Target: T5, NHERF3_3, Q5T2W1
# Assay: holdup assay
# Set-up: key: below the threshold = too weak to quantify, mostly under pKd 3.1 to 4
# Conditions: plain residues with an end cap or a label only (N-terminal biotin on a linker: ado-ado)
row,Binder,pKd
1,B1,below the threshold
2,B2,below the threshold
3,B3,below the threshold
4,B4,below the threshold

# Target: HTRA1, Q92743
# Sequence (Q92743 360-477): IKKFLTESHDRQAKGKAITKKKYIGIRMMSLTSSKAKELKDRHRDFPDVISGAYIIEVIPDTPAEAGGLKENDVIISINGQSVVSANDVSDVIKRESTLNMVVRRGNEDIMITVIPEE
# Assay: holdup assay
# Set-up: key: below the threshold = too weak to quantify, mostly under pKd 3.1 to 4
# Conditions: plain residues with an end cap or a label only (N-terminal biotin on a linker: ado-ado)
row,Binder,pKd
1,B1,3.89
2,B2,3.89
3,B3,4.9
4,B4,3.77

# Target: FRMPD3, Q5JV73
# Sequence (Q5JV73 12-100): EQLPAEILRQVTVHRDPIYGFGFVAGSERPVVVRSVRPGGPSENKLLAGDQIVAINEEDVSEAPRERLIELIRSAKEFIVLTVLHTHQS
# Assay: holdup assay
# Set-up: key: below the threshold = too weak to quantify, mostly under pKd 3.1 to 4
# Conditions: plain residues with an end cap or a label only (N-terminal biotin on a linker: ado-ado)
row,Binder,pKd
1,B1,below the threshold
2,B2,below the threshold
3,B3,4.02
4,B4,below the threshold

# Target: T6, MPP2, Q14168
# Assay: holdup assay
# Set-up: key: below the threshold = too weak to quantify, mostly under pKd 3.1 to 4
# Conditions: plain residues with an end cap or a label only (N-terminal biotin on a linker: ado-ado)
row,Binder,pKd
1,B1,below the threshold
2,B2,below the threshold
3,B3,below the threshold
4,B4,below the threshold

# Target: T7, SYNJ2BP, P57105
# Assay: holdup assay
# Set-up: key: below the threshold = too weak to quantify, mostly under pKd 3.1 to 4
# Conditions: plain residues with an end cap or a label only (N-terminal biotin on a linker: ado-ado)
row,Binder,pKd
1,B1,4.62
2,B2,below the threshold
3,B3,below the threshold
4,B4,5.41

# Target: GRID2IP_2, A4D2P6
# Sequence (A4D2P6 272-370): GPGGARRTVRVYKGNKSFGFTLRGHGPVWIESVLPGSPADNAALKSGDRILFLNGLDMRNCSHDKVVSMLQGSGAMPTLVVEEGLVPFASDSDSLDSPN
# Assay: holdup assay
# Set-up: key: below the threshold = too weak to quantify, mostly under pKd 3.1 to 4
# Conditions: plain residues with an end cap or a label only (N-terminal biotin on a linker: ado-ado)
row,Binder,pKd
1,B1,below the threshold
2,B2,below the threshold
3,B3,below the threshold
4,B4,4.62

# Target: T8, LNX2_2, Q8N448
# Assay: holdup assay
# Set-up: key: below the threshold = too weak to quantify, mostly under pKd 3.1 to 4
# Conditions: plain residues with an end cap or a label only (N-terminal biotin on a linker: ado-ado)
row,Binder,pKd
1,B1,3.52
2,B2,below the threshold
3,B3,below the threshold
4,B4,below the threshold

# Target: T9, APBA1_1, Q02410
# Assay: holdup assay
# Set-up: key: below the threshold = too weak to quantify, mostly under pKd 3.1 to 4
# Conditions: plain residues with an end cap or a label only (N-terminal biotin on a linker: ado-ado)
row,Binder,pKd
1,B1,below the threshold
2,B2,below the threshold
3,B3,below the threshold
4,B4,below the threshold

# Target: T10, GRIP1_5, Q9Y3R0
# Assay: holdup assay
# Set-up: key: below the threshold = too weak to quantify, mostly under pKd 3.1 to 4
# Conditions: plain residues with an end cap or a label only (N-terminal biotin on a linker: ado-ado)
row,Binder,pKd
1,B1,below the threshold
2,B2,below the threshold
3,B3,below the threshold
4,B4,below the threshold

# Target: T11, GRIP1_3, Q9Y3R0
# Assay: holdup assay
# Set-up: key: below the threshold = too weak to quantify, mostly under pKd 3.1 to 4
# Conditions: plain residues with an end cap or a label only (N-terminal biotin on a linker: ado-ado)
row,Binder,pKd
1,B1,below the threshold
2,B2,below the threshold
3,B3,below the threshold
4,B4,below the threshold

# Target: T12, APBA1_2, Q02410
# Assay: holdup assay
# Set-up: key: below the threshold = too weak to quantify, mostly under pKd 3.1 to 4
# Conditions: plain residues with an end cap or a label only (N-terminal biotin on a linker: ado-ado)
row,Binder,pKd
1,B1,below the threshold
2,B2,below the threshold
3,B3,below the threshold
4,B4,3.61
